Where “and” joins values, the source holds several entries; their conditions need not be identical. Equal entries are not always repeated. Entries after “also recorded” stand apart in the source; their conditions may differ. Where two headings read alike, the source gives them in different places.
How the values were obtained:
[1] = target: Klebsiella pneumoniae DsbA (K. pneumoniae); assay: ITC; peptide (3 mM) titrated into 100 μM DsbA in the cell; 25 mM HEPES, 50 mM NaCl, pH 7.4, DMSO 0.8 %; 25 °C by the methods (20 °C by the footnote of Table 4); single-site binding model; apparent Kd; triplicate
[2] = target: T1, Cys30 (UniProt position 49, FFSFYCPHCYQ); assay: UV-vis; details: 22 °C; 200 mM KCl plus buffer salts (total ionic strength not stated); 10 mM Tris, 10 mM sodium citrate, 10 mM K2HPO4, 10 mM KH2PO4, 200 mM KCl, 1 mM EDTA; Reduced KpDsbA (40 μM), with oxidised KpDsbA as reference
[3] = target: KpDsbA; assay: ITC binding of DsbB-derived peptides to KpDsbA; parameters: species or system K. pneumoniae
Experimental: Amidation and acetylation ensure that there are no charges on the peptide termini, as these are not present in the native DsbB loop sequence. Binding affinity was measured using a MicroCal™ Auto-iTC200 from (GE Healthcare, USA) at 25 °C. The sample cell was loaded with 200 μL of 100 μM KpDsbA or EcDsbA in 25 mM HEPES, 50 mM NaCl, pH 7.4, and DMSO 0.8 %. The peptide (3 mM) diluted in the same buffer was titrated with an initial injection of 0.5 μL into DsbA, followed by 19 consecutive injections (2.0 μL) offset by 180 s, while the solution was constantly stirred (1000 rpm). Data were fitted to a single-site binding model using MicroCal™ Origin 7.0 software (Origin 7 SR4 v7.0552). Experiments were conducted in triplicate and affinity and thermodynamic parameters are reported as means and standard deviations (Table 4).

[4] = target: T1, Cys30; details: not stated; cited from earlier work
[5] = target: Cys30 (UniProt position 49, FFSFFCPHCYQ); details: not stated; cited from earlier work
[6] = target: Cys30 (UniProt position 49, FFSFYCPHCNT); details: not stated; cited from earlier work
[7] = tested on: insulin; assay: Insulin disulfide reductase activity; format: biochemical; details: 10 μM enzyme, 0.33 mM DTT, 2 mM EDTA, 100 mM phosphate pH 7.0, 0.131 mM insulin; OD650nm turbidity; three repeats
Experimental: Under mild reducing conditions, DsbA proteins can reduce the intermolecular disulfide bonds formed between insulin chains A and B [3]. The rate of disulfide bond reduction can be spectroscopically followed at OD650nm by an increase in turbidity resulting from production of the insoluble insulin chain B [20]. Samples were prepared in 1 cm cuvettes containing 10 μM of protein (KpDsbA, EcDsbA or EcDsbC), 0.33 mM DTT and 2 mM EDTA in 100 mM NaH2PO4 / Na2HPO4 titrated to pH 7.0. Catalysis was initiated by the addition of 0.131 mM insulin (I0516, Sigma-Aldrich, Australia) to the sample mixture. The assay was repeated three times and data were plotted showing standard deviations.

[8] = target: T2, Escherichia coli DsbA (E. coli, UniProt P0AEG4 20-208); assay: ITC; peptide (3 mM) titrated into 100 μM DsbA in the cell; 25 mM HEPES, 50 mM NaCl, pH 7.4, DMSO 0.8 %; 25 °C by the methods (20 °C by the footnote of Table 4); single-site binding model; apparent Kd; triplicate; details: both partners purified
T2 construct: also called EcDsbA; E. coli DsbA; source: purified as described for KpDsbA (BL21(DE3)pLys, Talon resin, TEV protease, Superdex75)
T2 sequence (looked up): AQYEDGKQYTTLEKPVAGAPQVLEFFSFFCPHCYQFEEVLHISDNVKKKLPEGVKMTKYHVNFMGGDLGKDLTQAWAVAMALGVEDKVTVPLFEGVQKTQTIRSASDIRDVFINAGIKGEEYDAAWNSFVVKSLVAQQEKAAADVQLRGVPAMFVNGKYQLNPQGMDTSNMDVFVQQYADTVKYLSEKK

[9] = tested on: E. coli dsbA- null (JCB817); details: SeDsbA, null mutant motility assay; ref [44]; cited from earlier work
[10] = tested on: insulin; details: cited from earlier work
[11] = SeDsbA, cited from earlier work
Description: The past 5 years has seen the characterization of DsbA enzymes from many other bacteria including DsbAs with varying degrees of sequence identity to EcDsbA such as Neisseria meningitidis DsbA1 (NmDsbA1, 23% identity), Pseudomonas aerugin ... || EcDsbA and SeDsbA share 86 % sequence identity and both have been characterized previously. […] Both are similarly oxidizing enzymes: the redox potentials of EcDsbA and SeDsbA are -122 and -126 mV, respectively, whereas the range for all DsbAs is -80 to -163 mV (Table 1 ). In b ... || (+ 1 further places)

[12] = In vitro peptide dithiol oxidation (europium fluorescence); format: biochemical; details: pH 5.5
Experimental: A peptide ([…]) with a 1,4,7,10-tetraazacyclododecane-1,4,7,10-tetraacetic acid (DOTA) group amide-coupled to the N-terminus, and a methylcoumarin amide-coupled to the ε-amino group of the C-terminal lysine, was purchased from AnaSpec (Fremont, CA). Lyophilized peptide was re-suspended in 100 mM imidazole, pH 6, at a concentration of 2 mM. Europium trifluoromethanesulfonate (Sigma Aldrich, Australia) solution (100 mM) was added to the peptide at a molar ratio of 2:1 and incubated for 5 min at room temperature, to allow europium chelation. The peptide solution was then immediately aliquoted, flash frozen in liquid nitrogen and stored at -80°C. An increase in fluorescence occurs upon oxidation of the peptide cysteines to form a disulfide. Thus, fluorescence can be used to monitor the capacity of DsbA enzymes to catalyse dithiol oxidation.
Assays were conducted using a Synergy H1 multimode plate reader (BioTek, USA) with the excitation wavelength set to 340 nm and emission to 615 nm. A 150 μs delay before reading and 100 μs reading time were used for time-resolved fluorescence. The assay was performed in a white 384-well plate (Perkin Elmer OptiPlate-384, Part #: 6007290). The buffer consisted of 50 mM MES, 50 mM NaCl and 2 mM EDTA at pH 5.5. The reaction consisted of a 50 μL solution in each well, containing 160 nM EcDsbA, KpDsbA or SeDsbA, 1.6 μM EcDsbB (crude membrane extracts, containing ubiquinone) and 8 μM peptide substrate added last to initiate the reaction. Samples containing buffer and DsbA or buffer and peptide were used as controls. Data were measured for three replicates and are presented as mean values, with the standard error of the mean indicated by error bars.

[13] = Temperature-induced unfolding by far-UV CD; format: physicochemical
Experimental: Temperature-induced unfolding of native SeDsbA and KpDsbA was determined as described previously using a Jasco J-810 circular dichroism (CD) spectropolarimeter (Jasco, USA). The redox state of the protein was confirmed using Ellman’s reagent. The largest difference in molar ellipticity for oxidized or reduced enzymes was calculated from initial far-UV CD spectra (from 250 nm to 190 nm) recorded at 25 °C and 95 °C, respectively. The unfolding of oxidized and reduced protein (SeDsbAox = 220 nm, SeDsbAred = 220.5 nm and KpDsbAox = 211 nm, KpDsbAred = 209.5 nm) was monitored at a heat rate of 1 K / min from 298 K to 368 K in a 1 mm quartz cuvette. All measurements were carried out with 10 µM protein in 100 mM NaH2PO4 / Na2HPO4, 1 mM EDTA at pH 7.0. Samples for measurement of reduced enzyme contained 0.75 mM DTT. Raw data were analyzed in Prism and fitted to a two-state unfolding model as described previously. The standard deviation was measured from three replicates.

In the case of EcDsbB P2 loop peptide PSPFATCD, the Kd [1] is reported as 17.9 µM, the dH [1] is reported as -9.5 kcal/mol and the stoichiometry N [1] is reported as 0.93.

“DsbA (thiol:disulfide interchange protein DsbA), KpDsbA (Klebsiella pneumoniae (strain 342))” gave a pKa [2] of 3.2.

`CC(=O)N1CCC[C@H]1C(=O)N[C@@H](CO)C(=O)N1CCC[C@H]1C(=O)N[C@@H](Cc1ccccc1)C(=O)N[C@@H](C)C(=O)N[C@H](C(=O)N[C@@H](CS)C(=O)N[C@@H](CC(=O)O)C(N)=O)[C@@H](C)O` gave a Kd ([3]; ITC (Auto-iTC200), cell 100 μM KpDsbA, peptide 3 mM, 25 mM HEPES, 50 mM NaCl, pH 7.4, DMSO 0.8 %, 25 °C in method, 20 °C in table footnote, single-site model, apparent Kd, mean ± SD, three independent experiments, read-out: Kd) of 17.9 ± 1.5 µM and a Kd ([3]; ITC, range stated for KpDsbA and EcDsbA with PSPFATCD and PSPFQTCD together, read-out: Kd (range over both peptides and both DsbAs)) of 11 to 18 µM.

For “DsbA (SeDsbA) (Salmonella enterica serovar Typhimurium (strain SL1344))”, the pKa [4] is listed as 3.3.

KpDsbB P2 loop peptide PSPFQTCD gave a Kd [1] of 16.7 µM, a dH [1] of -11.1 kcal/mol and a stoichiometry N [1] of 0.97.

In the case of DsbA (EcDsbA) (Escherichia coli (K-12)), the pKa [5] is given as 3.3.

For DsbA (VcDsbA, TcpG) (Vibrio cholerae), the pKa [6] is given as 5.1.

B1: EcDsbC: E. coli disulfide isomerase DsbC (AAA83074) (protein, UniProt P0AEG6 21-236, looked up)
Thiol:disulfide interchange …: DDAAIQQTLAKMGIKSSDIQPAPVAGMKTVLTNSGVLYITDDGKHIIQGPMYDVSGTAPVNVTNKMLLKQLNALEKEMIVYKAPQEKHVITVFTDITCGYCHKLHEQMADYNALGITVRYLAFPRQGLDSDAEKEMKAIWCAKDKNKAFDDVMAGKSVAPASCDVDIADHYALGVQLGVSGTPAVVLSNGTLVPGYQPPKEMKEFLDEHQKMTSGK
With B1 the “insulin disulfide reductase activity” value [7] was “highly active”.

B2: KpDsbB P2 loop peptide PSPFQTCD (peptide)
peptide: Ac-PSPFQTCD-NH2
notes: P2 loop of K. pneumoniae DsbB; source: synthetic peptide
For B2, the Kd [8] was 10.9 µM.

B3: SeDsbA: S. enterica Typhimurium DsbA (AAB81592) (protein)
chain: AQISDGKQYITLDKPVAGEPQVLEFFSFYCPHCYQFEEVLHVSDNVKKKLPEGTKMTKYHVEFLGPLGKELTQAWAVAMALGVEDKVTVPLFEAVQKTQTVQSAADIRKVFVDAGVKGEDYDAAWNSFVVKSLVAQQEKAAADLQLQGVPAMFVNGKYQINPQGMDTSSMDVFVQQYADTVKYLVDKK
modifications: left off: His6 (inferred: purified as described for KpDsbA), N-terminal, cleaved
In the case of B3, the “complementation of EcDsbA, motility” value [9] is listed as “can complement EcDsbA; also recorded: can fully restore the motility of dsbA ^- deficient strains”, the insulin reductase activity [10] is listed as “weak disulfide reductants; also recorded: weak insulin reductase activity” and the “E°’ (redox potential)” value ([11]; Table 1, ref [43] and [14]) is listed as -126 mV. For the same molecule, the “pKa “Cys30”” value ([11]; Table 1 and comparison, ref [43] and [14]) was 3.3, the “pKa of nucleophilic cysteine” value ([11]; ref [43]) was 3.3 and the redox potential ([11]; ref [43]) was -126 mV. For the same molecule, the “dithiol oxidation signal without EcDsbB” value ([12]; samples lacking EcDsbB, DsbA plus peptide, time-resolved fluorescence) was “no increase in signal”, the “rate of catalyzed disulfide bond formation” value ([12]; with EcDsbB, 160 nM DsbA, 1.6 μM EcDsbB membrane extract, 8 μM peptide, 50 mM MES, 50 mM NaCl, 2 mM EDTA, time-resolved fluorescence 340/615 nm, three replicates) was “almost indistinguishable from that of EcDsbA” and the Tm reduced ([13]; 10 µM protein, 100 mM phosphate, 1 mM EDTA, pH 7.0, 0.75 mM DTT, 1 K/min 298-368 K, SeDsbA 220.5 nm, KpDsbA 209.5 nm, two-state fit, SD from three replicates) was 351 K and 351.2 ± 0.2 K and 351.2 +/- 0.2 K. The Tm oxidized ([13]; 10 µM protein, 100 mM phosphate, 1 mM EDTA, pH 7.0, 1 K/min 298-368 K, SeDsbA 220 nm, KpDsbA 211 nm, two-state fit, SD from three replicates) was 342.8 ± 0.4 K and 342.8 +/- 0.4 K and 343 K and the “stabilisation of reduced over oxidized form” value ([13]; SeDsbA, difference of melting temperatures) was 9 K.

Source: paper PMC3828196 (PLoS ONE, 2013)
